Target: rat anti-DNP (IgG^DNP, clone: LO-DNP-2) photocrosslinked with IBA-biotin
Experiment: ELISA, anti-Fc HRP secondary on UV exposed IBA-biotin photocrosslinked IgG^DNP (antigen-bound or directly adsorbed), relative to no UV

- Fc recognition (percent activity at 2.0 J/cm^2 UV): 75%
Substance: HRP-conjugated IgG Fcγ specific goat anti-rat (antibody)

Reference: US20160022834A1
